The text below walks through data of patent publication US20240228596A1 (VIB VZW, published 2024).

The target of the experiment is SARS-COV-1 spike protein on VSV-delG pseudotyped particles (SARS-COV-1, UniProt P59594 14-1255). As to the kind of experiment: cell-based or functional assay.

B1: VHH72_h1_S56A (VHH)
VHH: EVQLVESGGGLVQPGGSLRLSCAASGRTFSEYAMGWFRQAPGKEREFVATISWSGGATYYTDSVKGRFTISRDNAKNTVYLQMNSLRPEDTAVYYCAAAGLGTVVSEWDYDYDYWGQGTLVTVSS
In the case of B1, the “IC50 Mean VSV-dG-spike SARS-COV-1” value was 0.013 µg/mL.
